{"source": "paper PMC11620640", "data": [{"target": "SARS-CoV-2 Omicron BA.2 spike RBD (UniProt P0DTC2)", "experiment": "SPR", "units": {"Kd": "nM"}, "values": [{"substance": "raccoon dog ACE2 (rdACE2), peptidase domain (PD), wild type (from UniProt B4XEP4) E38D", "Kd": 245}, {"substance": "raccoon dog ACE2 (rdACE2), peptidase domain (PD), wild type (from UniProt B4XEP4) L24Q", "Kd": 283}, {"substance": "raccoon dog ACE2 (rdACE2), peptidase domain (PD), wild type (from UniProt B4XEP4) R353K", "Kd": 136}]}]}
